Reference: patent US20060024313A1 (published 2006)

Molecular target: the molecule itself
Test: velocity AUC in PBS (self-association)

B1: DPP-IV H750E mutant (enzyme, human, UniProt P27487 39-766, looked up)
chain: SRKTYTLTDYLKNTYRLKLYSLRWISDHEYLYKQENNILVFNAEYGNSSVFLENSTFDEFGHSINDYSISPDGQFILLEYNYVKQWRHSYTASYDIYDLNKRQLITEERIPNNTQWVTWSPVGHKLAYVWNNDIYVKIEPNLPSYRITWTGKEDIIYNGITDWVYEEEVFSAYSALWWSPNGTFLAYAQFNDTEVPLIEYSFYSDESLQYPKTVRVPYPKAGAVNPTVKFFVVNTDSLSSVTNATSIQITAPASMLIGDHYLCDVTWATQERISLQWLRRIQNYSVMDICDYDESSGRWNCLVARQHIEMSTTGWVGRFRPSEPHFTLDGNSFYKIISNEEGYRHICYFQIDKKDCTFITKGTWEVIGIEALTSDYLYYISNEYKGMPGGRNLYKIQLSDYTKVTCLSCELNPERCQYYSVSFSKEAKYYQLRCSGPGLPLYTLHSSVNDKGLRVLEDNSALDKMLQNVQMPSKKLDFIILNETKFWYQMILPPHFDKSKKYPLLLDVYAGPCSQKADTVFRLNWATYLASTENIIVASFDGRGSGYQGDKIMHAINRRLGTFEVEDQIEAARQFSKMGFVDNKRIAIWGWSYGGYVTSMVLGSGSGVFKCGIAVAPVSRWEYYDSVYTERYMGLPTPEDNLDHYRNSTVMSRAENFKQVEYLLIHGTADDNVHFQQSAQISKALVDVGVDFQAMWYTDEDHGIASSTAHQEIYTHMSHFIKQCFSLP
notes: range 39-766; Monomeric by AUC
binding result: no binding (tested: 0.1 to 0.2 mg/ml (1.2 uM to 2.3 uM))
